Source: US20150276740A1, “METHOD FOR D[…] ACTIVITY” (SYSMEX CORPORATION, priority 2014, published 2015)

Key:
[1] = tested on: biotinylated CDK2 substrate peptide (Biotin-Ahx-His-His-Ala-Ser-Pro-Arg-Lys)
[2] = biological target: T1, CDK1 (Homo sapiens, UniProt P06493); assay: Determination of CDK1 kinase activity using chemical luminescence with the ATP derivative as phosphate-group donor (S/N evaluation); assay type: biochemical; details: CDK1 immunoprecipitated from K562 solubilized sample; biotinylated CDK2 substrate peptide; anti-DNP antibody detection; compared to the S/N ratio of Comparative Example 1 (ATPγS as phosphate-group donor)
T1 construct: a reaction was caused to occur between CDK1 and the anti-CDK1 antibody; endogenous in cells; host or cells: K562 cells (lysate, immunoprecipitated with anti-CDK1 antibody from Operon on protein A Sepharose beads)
Description: In a well of a 96-well filter plate (hydrophilic PVDF membrane manufactured by Millipore Corp.), 70 μL of an immunoprecipitation buffer (a buffer containing 0.1 mass % Nonidet NP-40 and 50 mM tris hydrochloride (pH7.4)) was added. Then, with respect to the immunoprecipitation buffer in the well, 20 μL of an antibody solution containing 16 μg of an anti-CDK1 antibody (manufactured by Operon Co., ltd.), and 30 μL of 20 v/v % Sepharose beads (manufactured by GE Healthcare) coated with protein A were added. […]
Next, with respect to the beads that had been cleaned, 50 μL of the CDK substrate solution (composition: 100 ng/μL biotinylated CDK2 substrate peptide (manufactured by Enzo Inc.), the compound 2 represented by formula (x2), 54 mM tris hydrochloride (pH7.4), and 20 mM magnesium chloride) was added to obtain a mixture. The concentration of the compound 2 was a concentration that provided an absorbance of 2 at 362 nm. This absorbance was measured in a manner similar to that in Example 1 (2). […]

T1 sequence (P06493 whole entry): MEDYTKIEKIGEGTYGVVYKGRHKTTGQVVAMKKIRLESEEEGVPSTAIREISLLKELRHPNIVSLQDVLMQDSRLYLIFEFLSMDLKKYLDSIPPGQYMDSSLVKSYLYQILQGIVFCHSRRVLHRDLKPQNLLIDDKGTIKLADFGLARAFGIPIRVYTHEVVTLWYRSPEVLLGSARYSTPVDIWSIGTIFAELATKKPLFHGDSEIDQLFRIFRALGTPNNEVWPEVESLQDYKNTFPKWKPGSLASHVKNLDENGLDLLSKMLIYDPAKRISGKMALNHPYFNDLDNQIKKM
T1 sequence (P14635 whole entry partner): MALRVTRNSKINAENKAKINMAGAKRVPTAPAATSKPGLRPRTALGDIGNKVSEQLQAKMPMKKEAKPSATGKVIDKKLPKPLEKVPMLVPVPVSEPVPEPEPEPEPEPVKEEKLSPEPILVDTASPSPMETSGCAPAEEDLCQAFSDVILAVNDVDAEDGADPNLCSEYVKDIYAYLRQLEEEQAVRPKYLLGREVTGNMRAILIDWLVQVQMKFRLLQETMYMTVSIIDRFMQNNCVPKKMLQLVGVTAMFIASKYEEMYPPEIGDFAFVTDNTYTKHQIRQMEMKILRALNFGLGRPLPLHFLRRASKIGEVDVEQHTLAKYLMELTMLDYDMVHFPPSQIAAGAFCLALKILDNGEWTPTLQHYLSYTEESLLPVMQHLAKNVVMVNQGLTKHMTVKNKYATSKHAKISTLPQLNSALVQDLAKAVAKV

| Compound | specific luminescence intensity based on CDK2 activity (ATPγDNP transphosphorylation, ALP labeled anti-DNP antibody, chemiluminescence) [1] | S/N ratio (luminescence intensity A1/luminescence intensity B) [2] |
| --- | --- | --- |
| cyclin-dependent kinase (CDK) 2 | the specific luminescence intensity based on CDK2 activity increases in association with an increase in the CDK2 concentration (increase in the solubilized sample concentration) | – |
| Nc1ncnc2c1ncn2C1OC(COP(=O)(O)OP(=O)(O)OP(=O)(O)SC2CC(=O)N(CCC(=O)NCCOCCOCCCNC(CCCCNc3ccc([N+](=O)[O-])cc3[N+](=O)[O-])C(=O)O)C2=O)C(O)C1O (centres unmarked) [compound 4] | – | tended to be high |
